Legend:
[1] = target: UHRF1 SRA SUVH5 finger swap (/ A. thaliana finger loop) (UniProt Q96T88); assay: fluorescence polarization; settings: 0.05% NP-40, 10 nM FAM-DNA (temperature not stated), ITC: 25 mM HEPES, 1 mM DTT, 25 C
[2] = target: T1, UHRF1 SRA (WT) (UniProt Q96T88 414-616); assay: ITC; 35 uM protein in cell, 430 uM DNA in syringe; n 0.5-1.0; FP: 25 mM HEPES pH 7.5, 100 mM NaCl, 0.05% NP-40, 10 nM FAM-DNA (temperature not stated); ITC: 25 mM HEPES, 100 mM NaCl, 1 mM DTT, 25 C; settings: protein: recombinant; tags: N-terminal His6-MBP (retained); blunt
T1 sequence: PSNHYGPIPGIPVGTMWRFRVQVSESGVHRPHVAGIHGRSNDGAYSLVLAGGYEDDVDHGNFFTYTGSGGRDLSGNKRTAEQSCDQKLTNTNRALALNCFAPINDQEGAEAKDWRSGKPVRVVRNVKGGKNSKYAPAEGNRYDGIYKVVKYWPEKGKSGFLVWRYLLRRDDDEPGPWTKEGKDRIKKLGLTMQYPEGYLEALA

UHRF1 SRA SUVH5 finger swap (/ A. thaliana finger loop), sequence (Q96T88 whole entry): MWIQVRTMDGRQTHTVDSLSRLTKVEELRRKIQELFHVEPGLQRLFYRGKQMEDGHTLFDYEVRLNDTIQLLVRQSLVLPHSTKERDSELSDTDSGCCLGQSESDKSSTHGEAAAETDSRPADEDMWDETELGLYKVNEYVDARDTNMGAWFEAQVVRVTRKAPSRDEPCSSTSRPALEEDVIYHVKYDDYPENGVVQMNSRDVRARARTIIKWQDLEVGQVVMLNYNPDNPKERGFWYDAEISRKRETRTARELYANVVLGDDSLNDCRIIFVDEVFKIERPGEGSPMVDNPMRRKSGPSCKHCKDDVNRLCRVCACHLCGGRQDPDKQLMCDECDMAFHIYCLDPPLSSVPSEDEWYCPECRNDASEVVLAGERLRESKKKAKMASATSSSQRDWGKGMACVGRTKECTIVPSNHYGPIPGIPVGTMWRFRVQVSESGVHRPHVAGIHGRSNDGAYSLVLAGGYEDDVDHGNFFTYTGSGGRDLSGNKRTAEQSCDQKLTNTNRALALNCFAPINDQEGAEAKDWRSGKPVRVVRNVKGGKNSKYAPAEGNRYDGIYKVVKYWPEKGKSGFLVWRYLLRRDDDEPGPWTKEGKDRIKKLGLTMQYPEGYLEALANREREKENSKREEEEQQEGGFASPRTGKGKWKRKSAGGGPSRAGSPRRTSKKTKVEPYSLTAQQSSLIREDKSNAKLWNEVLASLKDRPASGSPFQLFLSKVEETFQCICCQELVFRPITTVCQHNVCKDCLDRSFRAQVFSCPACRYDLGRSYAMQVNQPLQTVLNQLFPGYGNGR

CCATGCGCTGAC (double strand) [He5mC (FAM)]
Kd ([1]; 5mC at position 6 of strand 1, FP: 25 mM HEPES pH 7.5, 100 mM NaCl): 200 nM

CCATGCGCTGAC (double strand) [Sy5mC]
Kd ([1]; 5mC at position 6 of strand 1 and position 6 of strand 2, FP: 25 mM HEPES pH 7.5, 100 mM NaCl): 200 nM

CCATGCGCTGAC (double strand) [UnDNA]
Kd ([1]; FP: 25 mM HEPES pH 7.5, 100 mM NaCl): 200 nM

B1: He5mC (unlabelled, ITC) (dsDNA)
DNA 1: CCATGCGCTGAC
DNA 2: GTCAGCGCATGG
modifications: 5mC at position 6 of strand 1
binding result [2]: binds

— article PMC6816099, “The finger loop of the SRA domain in the E3 ligase UHRF1 is a regulator of ubiquitin targeting and is required for the maintenance of DNA methylation”
